How the values were obtained:
HeLa Kyoto [1] = test: thermal stability score vs G1/S (z-score of summed log2 fold changes over temperatures); higher = more thermally stable than in G1/S
HeLa Kyoto [2] = test: solubility change mitosis vs G1/S (difference of NP-40 vs SDS log2 ratios) (log2 ratio difference); higher = more soluble in mitosis
HeLa Kyoto [3] = test: melting temperature (median over replicates), in situ; higher = more thermally stable
HeLa Kyoto [4] = test: solubility in G1/S (NP-40 vs SDS abundance) (log2 ratio); higher = more soluble; details: cell cycle stage: G1/S
[5] = cell cycle stage: early G1 (4.5 h after nocodazole release)
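Throughout, for melting temperature (median over replicates), in situ: HeLa Kyoto cells synchronized by double thymidine or nocodazole block, proteins quantified by TMT10plex mass spectrometry, three independent biological replicates.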
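Throughout, for solubility change mitosis vs G1/S (difference of NP-40 vs SDS log2 ratios): synchronized HeLa Kyoto cells (double thymidine block for G1/S, nocodazole release for mitosis), protein amounts in NP-40 versus SDS lysates quantified by mass spectrometry, three biological replicates.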
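Throughout, for solubility in G1/S (NP-40 vs SDS abundance): HeLa Kyoto cells arrested at G1/S by double thymidine block, proteins quantified by TMT10plex mass spectrometry in mild NP-40 versus SDS extracts, three biological replicates.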
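Throughout, for thermal stability score vs G1/S (z-score of summed log2 fold changes over temperatures): synchronized HeLa Kyoto cells, proteins quantified by TMT10plex mass spectrometry, three biological replicates, mitosis taken 0.5 h after nocodazole release, G1/S directly after double thymidine block.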

Chain of PPCS (chain, as listed by the source): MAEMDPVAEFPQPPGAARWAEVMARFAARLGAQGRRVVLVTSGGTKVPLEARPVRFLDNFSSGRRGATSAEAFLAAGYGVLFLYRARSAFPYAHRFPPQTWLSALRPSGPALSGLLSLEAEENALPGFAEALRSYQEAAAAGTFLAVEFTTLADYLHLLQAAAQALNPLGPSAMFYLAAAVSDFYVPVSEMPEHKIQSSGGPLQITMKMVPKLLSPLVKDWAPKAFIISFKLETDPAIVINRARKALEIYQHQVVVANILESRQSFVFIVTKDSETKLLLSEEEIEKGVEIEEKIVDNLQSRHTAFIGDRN

| Substance | thermal stability score (HeLa Kyoto [1]; [5]) | thermal stability score (HeLa Kyoto [1]; cell cycle stage: mitosis) | solubility change mitosis (log2) (HeLa Kyoto [2]) | melting temperature (HeLa Kyoto [3]; cell cycle stage: G1/S) [°C] | melting temperature (HeLa Kyoto [3]; cell cycle stage: mitosis) [°C] | solubility in G1/S (log2) (HeLa Kyoto [4]) |
| --- | --- | --- | --- | --- | --- | --- |
| MAASLRLLGAASGLRYWSRRLRPAAGSFAAVCSRSVASKTPVGFIGLGNMGNPMAKNLMKHGYPLIIYDVFPDACKEFQDAGEQVVSSPADVAEKADRIITMLPTSINAIEAYSGANGILKKVKKGSLLIDSSTIDPAVSKELAKEVEKMGAVFMDAPVSGGVGAARSGNLTFMVGGVEDEFAAAQELLGCMGSNVVYCGAVGTGQAAKICNNMLLAISMIGTAEAMNLGIRLGLDPKLLAKILNMSSGRCWSSDTYNPVPGVMDGVPSANNYQGGFGTTLMAKDLGLAQDSATSTKSPILLGSLAHQIYRMMCAKGYSKKDFSSVFQFLREEETF [HIBADH] | 0.844 | -0.199 | -0.0734 | 55.4 | 56.9 | 0.469 |
| MAVELGVLLVRPRPGTGLGRVMRTLLLVLWLATRGSALYFHIGETEKKCFIEEIPDETMVIGNYRTQLYDKQREEYQPATPGLGMFVEVKDPEDKVILARQYGSEGRFTFTSHTPGEHQICLHSNSTKFSLFAGGMLRVHLDIQVGEHANDYAEIAAKDKLSELQLRVRQLVEQVEQIQKEQNYQRWREERFRQTSESTNQRVLWWSILQTLILVAIGVWQMRHLKSFFEAKKLV [TMED9] | 1.59 | 1.3 | 0.0692 | 55.7 | 56.7 | 0.375 |
| PPCS | -0.584 | -0.132 | -0.173 | 52.1 | 52.9 | 0.249 |
| MLGAWAVEGTAVALLRLLLLLLPPAIRGPGLGVAGVAGAAGAGLPESVIWAVNAGGEAHVDVHGIHFRKDPLEGRVGRASDYGMKLPILRSNPEDQILYQTERYNEETFGYEVPIKEEGDYVLVLKFAEVYFAQSQQKVFDVRLNGHVVVKDLDIFDRVGHSTAHDEIIPMSIRKGKLSVQGEVSTFTGKLYIEFVKGYYDNPKVCALYIMAGTVDDVPKLQPHPGLEKKEEEEEEEEYDEGSNLKKQTNKNRVQSGPRTPNPYASDNSSLMFPILVAFGVFIPTLFCLCRL [MLEC] | 1.83 | 2.38 | -0.0845 | 53.7 | 53.6 | -0.0175 |
| MDAPKAGYAFEYLIETLNDSSHKKFFDVSKLGTKYDVLPYSIRVLLEAAVRNCDGFLMKKEDVMNILDWKTKQSNVEVPFFPARVLLQDFTGIPAMVDFAAMREAVKTLGGDPEKVHPACPTDLTVDHSLQIDFSKCAIQNAPNPGGGDLQKAGKLSPLKVQPKKLPCRGQTTCRGSCDSGELGRNSGTFSSQIENTPILCPFHLQPVPEPETVLKNQEVEFGRNRERLQFFKWSSRVFKNVAVIPPGTGMAHQINLEYLSRVVFEEKDLLFPDSVVGTDSHITMVNGLGILGWGVGGIETEAVMLGLPVSLTLPEVVGCELTGSSNPFVTSIDVVLGITKHLRQVGVAGKFVEFFGSGVSQLSIVDRTTIANMCPEYGAILSFFPVDNVTLKHLEHTGFSKAKLESMETYLKAVKLFRNDQNSSGEPEYSQVIQINLNSIVPSVSGPKRPQDRVAVTDMKSDFQACLNEKVGFKGFQIAAEKQKDIVSIHYEGSEYKLSHGSVVIAAVISCTNNCNPSVMLAAGLLAKKAVEAGLRVKPYIRTSLSPGSGMVTHYLSSSGVLPYLSKLGFEIVGYGCSICVGNTAPLSDAVLNAVKQGDLVTCGILSGNKNFEGRLCDCVRANYLASPPLVVAYAIAGTVNIDFQTEPLGTDPTGKNIYLHDIWPSREEVHRVEEEHVILSMFKALKDKIEMGNKRWNSLEAPDSVLFPWDLKSTYIRCPSFFDKLTKEPIALQAIENAHVLLYLGDSVTTDHISPAGSIARNSAAAKYLTNRGLTPREFNSYGARRGNDAVMTRGTFANIKLFNKFIGKPAPKTIHFPSGQTLDVFEAAELYQKEGIPLIILAGKKYGSGNSRDWAAKGPYLLGVKAVLAESYEKIHKDHLIGIGIAPLQFLPGENADSLGLSGRETFSLTFPEELSPGITLNIQTSTGKVFSVIASFEDDVEITLYKHGGLLNFVARKFS [IREB2] | -0.342 | -0.0931 | 0.0731 | 50.6 | 49.8 | 0.000606 |
| MDVLAEEFGNLTPEQLAAPIPTVEEKWRLLPAFLKVKGLVKQHIDSFNYFINVEIKKIMKANEKVTSDADPMWYLKYLNIYVGLPDVEESFNVTRPVSPHECRLRDMTYSAPITVDIEYTRGSQRIIRNALPIGRMPIMLRSSNCVLTGKTPAEFAKLNECPLDPGGYFIVKGVEKVILIQEQLSKNRIIVEADRKGAVGASVTSSTHEKKSRTNMAVKQGRFYLRHNTLSEDIPIVIIFKAMGVESDQEIVQMIGTEEHVMAAFGPSLEECQKAQIFTQMQALKYIGNKVRRQRMWGGGPKKTKIEEARELLASTILTHVPVKEFNFRAKCIYTAVMVRRVILAQGDNKVDDRDYYGNKRLELAGQLLSLLFEDLFKKFNSEMKKIADQVIPKQRAAQFDVVKHMRQDQITNGMVNAISTGNWSLKRFKMDRQGVTQVLSRLSYISALGMMTRISSQFEKTRKVSGPRSLQPSQWGMLCPSDTPEGEACGLVKNLALMTHITTDMEDGPIVKLASNLGVEDVNLLCGEELSYPNVFLVFLNGNILGVIRDHKKLVNTFRLMRRAGYINEFVSISTNLTDRCVYISSDGGRLCRPYIIVKKQKPAVTNKHMEELAQGYRNFEDFLHESLVEYLDVNEENDCNIALYEHTINKDTTHLEIEPFTLLGVCAGLIPYPHHNQSPRNTYQCAMGKQAMGTIGYNQRNRIDTLMYLLAYPQKPMVKTKTIELIEFEKLPAGQNATVAVMSYSGYDIEDALVLNKASLDRGFGRCLVYKNAKCTLKRYTNQTFDKVMGPMLDAATRKPIWRHEILDADGICSPGEKVENKQVLVNKSMPTVTQIPLEGSNVPQQPQYKDVPITYKGATDSYIEKVMISSNAEDAFLIKMLLRQTRRPEIGDKFSSRHGQKGVCGLIVPQEDMPFCDSGICPDIIMNPHGFPSRMTVGKLIELLAGKAGVLDGRFHYGTAFGGSKVKDVCEDLVRHGYNYLGKDYVTSGITGEPLEAYIYFGPVYYQKLKHMVLDKMHARARGPRAVLTRQPTEGRSRDGGLRLGEMERDCLIGYGASMLLLERLMISSDAFEVDVCGQCGLLGYSGWCHYCKSSCHVSSLRIPYACKLLFQELQSMNIIPRLKLSKYNE [POLR3B] | 0.664 | 1.01 | -0.161 | 48.9 | 49.6 | -0.184 |
| RSRC2 | 2.6 | 0.263 | 0.135 | 51.8 | 52.2 | -0.575 |
| CLASP1 | -0.916 | 0.139 | -0.0633 | 48.8 | 49.2 | -0.0269 |
| MPKKKTGARKKAENRREREKQLRASRSTIDLAKHPCNASMECDKCQRRQKNRAFCYFCNSVQKLPICAQCGKTKCMMKSSDCVIKHAGVYSTGLAMVGAICDFCEAWVCHGRKCLSTHACACPLTDAECVECERGVWDHGGRIFSCSFCHNFLCEDDQFEHQASCQVLEAETFKCVSCNRLGQHSCLRCKACFCDDHTRSKVFKQEKGKQPPCPKCGHETQETKDLSMSTRSLKFGRQTGGEEGDGASGYDAYWKNLSSDKYGDTSYHDEEEDEYEAEDDEEEEDEGRKDSDTESSDLFTNLNLGRTYASGYAHYEEQEN [ZNF330] | 3.84 | 0.774 | -0.0758 | 50.4 | 50.9 | -0.262 |
| MPLKWKTSSPAIWKFPVPVLKTSRSTPLSPAYISLVEEEDQHMKLSLGGSEMGLSSHLQSSKAGPTRIFTSNTHSSVVLQGFDQLRLEGLLCDVTLMPGDTDDAFPVHRVMMASASDYFKAMFTGGMKEQDLMCIKLHGVSKVGLRKIIDFIYTAKLSLNMDNLQDTLEAASFLQILPVLDFCKVFLISGVTLDNCVEVGRIANTYNLTEVDKYVNSFVLKNFPALLSTGEFLKLPFERLAFVLSSNSLKHCTELELFKATCRWLRLEEPRMDFAAKLMKNIRFPLMTPQELINYVQTVDFMRTDNTCVNLLLEASNYQMMPYMQPVMQSDRTAIRSDTTHLVTLGGVLRQQLVVSKELRMYDEKAHEWKSLAPMDAPRYQHGIAVIGNFLYVVGGQSNYDTKGKTAVDTVFRFDPRYNKWMQVASLNEKRTFFHLSALKGYLYAVGGRNAAGELPTVECYNPRTNEWTYVAKMSEPHYGHAGTVYGGVMYISGGITHDTFQKELMCFDPDTDKWIQKAPMTTVRGLHCMCTVGERLYVIGGNHFRGTSDYDDVLSCEYYSPILDQWTPIAAMLRGQSDVGVAVFENKIYVVGGYSWNNRCMVEIVQKYDPDKDEWHKVFDLPESLGGIRACTLTVFPPEETTPSPSRESPLSAP [KLHL13] | -0.01 | 0.108 | -0.128 | 52.2 | 50.4 | -0.13 |
| RAP1GAP2 | 0.21 | 0.699 | 0.327 | 50.3 | 50.3 | 0.164 |
| MATAALLRGATPGRGGPVWRWRLRAAPRCRLAHSSCSPGGDPTAGAAWACFRLDGRTLLRVRGPDAAPFLLGLLTNELPLPSPAAAGAPPAARAGYAHFLNVQGRTLYDVILYGLQEHSEVSGFLLECDSSVQGALQKHLALYRIRRKVTVEPHPELRVWAVLPSSPEACGAASLQERAGAAAILIRDPRTARMGWRLLTQDEGPALVPGGRLGDLWDYHQHRYLQGVPEGVRDLPPGVALPLESNLAFMNGVSFTKGCYIGQELTARTHHMGVIRKRLFPVRFLDPLPTSGITPGATVLTASGQTVGKFRAGQGNVGLALLWSEKIKGPLHIRASEGAQVALAASVPDWWPTVSK [IBA57] | 0.0549 | -0.552 | 0.132 | 52.8 | 52.4 | -0.246 |
| MSNYSVSLVGPAPWGFRLQGGKDFNMPLTISSLKDGGKAAQANVRIGDVVLSIDGINAQGMTHLEAQNKIKGCTGSLNMTLQRASAAPKPEPVPVQKGEPKEVVKPVPITSPAVSKVTSTNNMAYNKAPRPFGSVSSPKVTSIPSPSSAFTPAHATTSSHASPSPVAAVTPPLFAASGLHANANLSADQSPSALSAGKTAVNVPRQPTVTSVCSETSQELAEGQRRGSQGDSKQQNGPPRKHIVERYTEFYHVPTHSDASKKRLIEDTEDWRPRTGTTQSRSFRILAQITGTEHLKESEADNTKKANNSQEPSPQLASSVASTRSMPESLDSPTSGRPGVTSLTAAAAFKPVGSTGVIKSPSWQRPNQGVPSTGRISNSATYSGSVAPANSALGQTQPSDQDTLVQRAEHIPAGKRTPMCAHCNQVIRGPFLVALGKSWHPEEFNCAHCKNTMAYIGFVEEKGALYCELCYEKFFAPECGRCQRKILGEVISALKQTWHVSCFVCVACGKPIRNNVFHLEDGEPYCETDYYALFGTICHGCEFPIEAGDMFLEALGYTWHDTCFVCSVCCESLEGQTFFSKKDKPLCKKHAHSVNF [PDLIM5] | -0.121 | 0.334 | 0.0095 | 52.1 | 52.6 | 0.0686 |
| MFWKFDLHTSSHLDTLLEREDLSLPELLDEEDVLQECKVVNRKLLDFLLQPPHLQAMVAWVTQEPPDSGEERLRYKYPSVACEILTSDVPQINDALGADESLLNRLYGFLQSTGSLNPLLASFFSKVMGILINRKTDQLVSFLRKKDDFVDLLLQHIGTSAIMDLLLRLLTCVERPQLRQDVVNWLNEEKIVQRLIEQIHPSKDENQHSNASQSLCDIIRLSREQMIQVQDSPEPDQLLATLEKQETIEQLLSNMFEGEQSQSVIVSGIQVLLTLLEPRRPRSESVTVNSFFSSVDGQLELLAQGALESTVSSVGALHALRPRLSCFHQLLLEPPKLEPLQMTWGMLAPPLGNTRLHVVKLLASALSANDAALTHELLALDVPNTMLDLFFHYVFNNFLHAQVEGCVSTMLSLGPPPDSSPETPIQNPVVKHLLQQCRLVERILTSWEENDRVQCAGGPRKGYMGHLTRVAGALVQNTEKGPNAEQLRQLLKELPSEQQEQWEAFVSGPLAETNKKNMVDLVNTHHLHSSSDDEDDRLKEFNFPEEAVLQQAFMDFQMQRMTSAFIDHFGFNDEEFGEQEESVNAPFDKTANITFSLNADDENPNANLLEICYKDRIQQFDDDEEEEDEEEAQGSGESDGEDGAWQGSQLARGARLGQPPGVRSGGSTDSEDEEEEDEEEEEDEEGIGCAARGGATPLSYPSPGPQPPGPSWTATFDPVPTDAPTSPRVSGEEELHTGPPAPQGPLSVPQGLPTQSLASPPARDALQLRSQDPTPPSAPQEATEGSKVTEPSAPCQALVSIGDLQATFHGIRSAPSSSDSATRDPSTSVPASGAHQPPQTTEGEKSPEPLGLPQSQSAQALTPPPIPNGSAPEGPASPGSQ [PPP6R1] | -1.2 | -0.743 | -0.0433 | 53.1 | 50.6 | 0.169 |

Source: the supplement of paper PMC5998384
